# Legend:
# [1] = system: T1, PhaD-His6 (Pseudomonas putida KT2440), ORF:4b0e7042; experiment: EMSA
# T1 sequence: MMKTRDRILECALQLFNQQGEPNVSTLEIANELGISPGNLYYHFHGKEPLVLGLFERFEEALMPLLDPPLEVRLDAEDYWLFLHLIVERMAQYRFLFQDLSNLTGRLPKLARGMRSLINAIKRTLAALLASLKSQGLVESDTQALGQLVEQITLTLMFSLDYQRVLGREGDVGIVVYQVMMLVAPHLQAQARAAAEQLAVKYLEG
# [2] = target: T18‐PhaC1 (bacterial two‐hybrid fusion, pUT18C‐phaC1) (P. putida); experiment: two-hybrid
substance,measurement,setting,value
"CGCGGATCCATGCTGTGTACCTCATGCTCATGAGTGGTGGAAAACCGCCCATGGAGGCTGGGCTTGAGCATTAAGGTAGGGAAGAAAATTAGAAACCTCACCCTAAGGTCGTCGTTGTCGCATCTATATACCGCAAGCCCCGTTGACCACAGCGCTAGCGTCGCAGGCTTCACCTCACGGACATCGACGCCATGACTGCTGTAGCAAACCCACCCAGGCTGACGTTCAAGCAAAGCGTGGCAGGAATTCCGG (double strand) [PI promoter probe (phaI upstream, 230 bp)]",binding,[1],binds
CCGTACACTTCCGAGGATGGGCGCACCTCAGGCAGCATCTGCCGCGGGATGCCCAGGATTTCCAGCAGCTTGTCGTCCCACTGCAGGCTGTGGATGTTGAACATCAGCGTGCGCGAGGCATTGGTGTAGTCGGTGACGTGAACCTTCCCACCCGTAAGCTTCCAGATCAGCCAGGTG (double strand) [glpK coding fragment],binding,[1],no binding
"T18‐PhaC1 (bacterial two‐hybrid fusion, pUT18C‐phaC1) (natural protein)",β‐galactosidase activity,[2],1730 U/mg CDW
